Test results as given in IntAct's records for PubMed 25910212.

B1: Lipopolysaccharide-induced tumor necrosis factor-alpha factor (Homo sapiens), Q99732 (parent)
chain: MSVPGPYQAATGPSSAPSAPPSYEETVAVNSYYPTPPAPMPGPTTGLVTGPDGKGMNPPSYYTQPAPIPNNNPITVQTVYVQHPITFLDRPIQMCCPSCNKMIVSQLSYNAGALTWLSCGSLCLLGCIAGCCFIPFCVDALQDVDHYCPNCRALLGTYKRL
partner: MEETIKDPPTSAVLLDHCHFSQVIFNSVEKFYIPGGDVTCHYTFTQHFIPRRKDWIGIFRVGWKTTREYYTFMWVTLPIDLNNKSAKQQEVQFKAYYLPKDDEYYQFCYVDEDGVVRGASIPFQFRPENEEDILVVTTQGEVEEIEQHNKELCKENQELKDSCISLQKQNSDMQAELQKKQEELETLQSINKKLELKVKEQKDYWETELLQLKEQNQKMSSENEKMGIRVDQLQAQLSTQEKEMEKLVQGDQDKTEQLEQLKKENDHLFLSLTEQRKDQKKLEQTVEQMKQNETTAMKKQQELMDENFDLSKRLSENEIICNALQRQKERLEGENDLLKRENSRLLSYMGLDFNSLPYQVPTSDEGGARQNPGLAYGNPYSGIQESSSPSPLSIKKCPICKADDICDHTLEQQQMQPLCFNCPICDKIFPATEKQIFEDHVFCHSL
B2: Emerin (Homo sapiens), P50402 (parent)
chain: MDNYADLSDTELTTLLRRYNIPHGPVVGSTRRLYEKKIFEYETQRRRLSPPSSSAASSYSFSDLNSTRGDADMYDLPKKEDALLYQSKGYNDDYYEESYFTTRTYGEPESAGPSRAVRQSVTSFPDADAFHHQVHDDDLLSSSEEECKDRERPMYGRDSAYQSITHYRPVSASRSSLDLSYYPTSSSTSFMSSSSSSSSWLTRRAIRPENRAPGAGLGQDRQVPLWGQLLLFLVFVIVLFFIYHFMQAEEGNPF
partner: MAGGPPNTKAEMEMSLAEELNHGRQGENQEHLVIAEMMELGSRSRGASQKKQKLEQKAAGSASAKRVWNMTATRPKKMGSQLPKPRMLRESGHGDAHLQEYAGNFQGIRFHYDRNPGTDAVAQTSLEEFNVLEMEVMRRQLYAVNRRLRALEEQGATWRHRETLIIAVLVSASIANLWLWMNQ
B3: EF-hand domain-containing protein 1 (Homo sapiens), Q5JVL4 (parent)
chain: MVSNPVHGLPFLPGTSFKDSTKTAFHRSQTLSYRNGYAIVRRPTVGIGGDRLQFNQLSQAELDELASKAPVLTYGQPKQAPPADFIPAHVAFDKKVLKFDAYFQEDVPMSTEEQYRIRQVNIYYYLEDDSMSVIEPVVENSGILQGKLIKRQRLAKNDRGDHYHWKDLNRGINITIYGKTFRVVDCDQFTQVFLESQGIELNPPEKMALDPYTELRKQPLRKYVTPSDFDQLKQFLTFDKQVLRFYAIWDDTDSMYGECRTYIIHYYLMDDTVEIREVHERNDGRDPFPLLMNRQRVPKVLVENAKNFPQCVLEISDQEVLEWYTAKDFIVGKSLTILGRTFFIYDCDPFTRRYYKEKFGITDLPRIDVSKREPPPVKQELPPYNGFGLVEDSAQNCFALIPKAPKKDVIKMLVNDNKVLRYLAVLESPIPEDKDRRFVFSYFLATDMISIFEPPVRNSGIIGGKYLGRTKVVKPYSTVDNPVYYGPSDFFIGAVIEVFGHRFIILDTDEYVLKYMESNAAQYSPEALASIQNHVRKREAPAPEAESKQTEKDPGVQELEALIDTIQKQLKDHSCKDNIREAFQIYDKEASGYVDRDMFFKICESLNVPVDDSLVKELIRMCSHGEGKINYYNFVRAFSN
partner: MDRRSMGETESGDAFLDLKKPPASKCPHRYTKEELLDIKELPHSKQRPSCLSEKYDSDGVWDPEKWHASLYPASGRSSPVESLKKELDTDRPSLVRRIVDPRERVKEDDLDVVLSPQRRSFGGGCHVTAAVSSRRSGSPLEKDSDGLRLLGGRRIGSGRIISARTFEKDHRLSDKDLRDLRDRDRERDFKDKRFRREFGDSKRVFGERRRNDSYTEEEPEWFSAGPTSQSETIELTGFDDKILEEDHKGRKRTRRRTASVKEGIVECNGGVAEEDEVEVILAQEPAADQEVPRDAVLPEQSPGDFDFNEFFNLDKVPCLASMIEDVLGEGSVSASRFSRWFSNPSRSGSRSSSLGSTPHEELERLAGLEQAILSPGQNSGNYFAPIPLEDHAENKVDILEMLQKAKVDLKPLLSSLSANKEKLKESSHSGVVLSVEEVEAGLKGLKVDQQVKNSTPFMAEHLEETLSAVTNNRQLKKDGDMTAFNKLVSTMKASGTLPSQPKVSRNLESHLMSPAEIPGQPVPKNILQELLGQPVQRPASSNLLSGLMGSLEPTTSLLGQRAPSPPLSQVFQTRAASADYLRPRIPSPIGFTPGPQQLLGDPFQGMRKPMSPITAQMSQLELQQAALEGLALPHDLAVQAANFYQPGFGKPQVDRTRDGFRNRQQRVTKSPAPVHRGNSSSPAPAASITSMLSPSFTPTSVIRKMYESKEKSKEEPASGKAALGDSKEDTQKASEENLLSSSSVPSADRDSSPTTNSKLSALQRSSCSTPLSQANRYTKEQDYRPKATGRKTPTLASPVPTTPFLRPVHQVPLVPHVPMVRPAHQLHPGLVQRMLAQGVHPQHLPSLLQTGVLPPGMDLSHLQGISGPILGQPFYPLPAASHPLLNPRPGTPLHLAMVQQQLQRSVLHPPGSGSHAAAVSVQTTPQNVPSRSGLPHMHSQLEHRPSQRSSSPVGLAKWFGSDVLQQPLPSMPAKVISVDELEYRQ
B4: Mothers against decapentaplegic homolog 3 (Homo sapiens), P84022 (parent)
chain: MSSILPFTPPIVKRLLGWKKGEQNGQEEKWCEKAVKSLVKKLKKTGQLDELEKAITTQNVNTKCITIPRSLDGRLQVSHRKGLPHVIYCRLWRWPDLHSHHELRAMELCEFAFNMKKDEVCVNPYHYQRVETPVLPPVLVPRHTEIPAEFPPLDDYSHSIPENTNFPAGIEPQSNIPETPPPGYLSEDGETSDHQMNHSMDAGSPNLSPNPMSPAHNNLDLQPVTYCEPAFWCSISYYELNQRVGETFHASQPSMTVDGFTDPSNSERFCLGLLSNVNRNAAVELTRRHIGRGVRLYYIGGEVFAECLSDSAIFVQSPNCNQRYGWHPATVCKIPPGCNLKIFNNQEFAALLAQSVNQGFEAVYQLTRMCTIRMSFVKGWGAEYRRQTVTSTPCWIELHLNGPLQWLDKVLTQMGSPSIRCSSVS
partner: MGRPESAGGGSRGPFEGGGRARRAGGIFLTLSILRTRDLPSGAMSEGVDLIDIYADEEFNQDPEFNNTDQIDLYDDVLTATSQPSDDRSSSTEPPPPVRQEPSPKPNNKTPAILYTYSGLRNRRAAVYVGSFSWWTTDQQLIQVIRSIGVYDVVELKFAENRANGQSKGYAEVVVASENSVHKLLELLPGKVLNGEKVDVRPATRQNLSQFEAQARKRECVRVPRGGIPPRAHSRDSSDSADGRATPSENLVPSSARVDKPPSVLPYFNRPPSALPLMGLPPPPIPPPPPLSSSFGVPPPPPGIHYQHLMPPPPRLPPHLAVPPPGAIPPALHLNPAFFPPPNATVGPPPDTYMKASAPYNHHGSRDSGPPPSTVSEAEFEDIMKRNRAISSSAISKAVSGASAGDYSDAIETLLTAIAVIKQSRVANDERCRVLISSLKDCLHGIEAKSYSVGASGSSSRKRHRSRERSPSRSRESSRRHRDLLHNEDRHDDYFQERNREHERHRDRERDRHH
B5: Hypoxanthine-guanine phosphoribosyltransferase (Homo sapiens), P00492 (parent)
chain: MATRSPGVVISDDEPGYDLDLFCIPNHYAEDLERVFIPHGLIMDRTERLARDVMKEMGGHHIVALCVLKGGYKFFADLLDYIKALNRNSDRSIPMTVDFIRLKSYCNDQSTGDIKVIGGDDLSTLTGKNVLIVEDIIDTGKTMQTLLSLVRQYNPKMVKVASLLVKRTPRSVGYKPDFVGFEIPDKFVVGYALDYNEYFRDLNHVCVISETGKAKYKA
partner: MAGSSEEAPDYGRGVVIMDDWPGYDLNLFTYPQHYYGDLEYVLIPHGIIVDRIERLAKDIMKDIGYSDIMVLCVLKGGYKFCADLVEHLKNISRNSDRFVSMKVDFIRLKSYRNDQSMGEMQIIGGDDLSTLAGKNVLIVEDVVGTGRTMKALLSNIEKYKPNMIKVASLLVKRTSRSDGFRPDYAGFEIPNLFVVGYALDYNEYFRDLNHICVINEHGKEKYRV
B6: U4/U6 small nuclear ribonucleoprotein Prp31 (Homo sapiens), Q8WWY3 (parent)
chain: MSLADELLADLEEAAEEEEGGSYGEEEEEPAIEDVQEETQLDLSGDSVKTIAKLWDSKMFAEIMMKIEEYISKQAKASEVMGPVEAAPEYRVIVDANNLTVEIENELNIIHKFIRDKYSKRFPELESLVPNALDYIRTVKELGNSLDKCKNNENLQQILTNATIMVVSVTASTTQGQQLSEEELERLEEACDMALELNASKHRIYEYVESRMSFIAPNLSIIIGASTAAKIMGVAGGLTNLSKMPACNIMLLGAQRKTLSGFSSTSVLPHTGYIYHSDIVQSLPPDLRRKAARLVAAKCTLAARVDSFHESTEGKVGYELKDEIERKFDKWQEPPPVKQVKPLPAPLDGQRKKRGGRRYRKMKERLGLTEIRKQANRMSFGEIEEDAYQEDLGFSLGHLGKSGSGRVRQTQVNEATKARISKTLQRTLQKQSVVYGGKSTIRDRSSGTASSVAFTPLQGLEIVNPQAAEKKVAEANQKYFSSMAEFLKVKGEKSGLMST
partner: B1 partner
B7: Forkhead box protein P3 (Homo sapiens), Q9BZS1 (parent)
chain: MPNPRPGKPSAPSLALGPSPGASPSWRAAPKASDLLGARGPGGTFQGRDLRGGAHASSSSLNPMPPSQLQLPTLPLVMVAPSGARLGPLPHLQALLQDRPHFMHQLSTVDAHARTPVLQVHPLESPAMISLTPPTTATGVFSLKARPGLPPGINVASLEWVSREPALLCTFPNPSAPRKDSTLSAVPQSSYPLLANGVCKWPGCEKVFEEPEDFLKHCQADHLLDEKGRAQCLLQREMVQSLEQQLVLEKEKLSAMQAHLAGKMALTKASSVASSDKGSCCIVAAGSQGPVVPAWSGPREAPDSLFAVRRHLWGSHGNSTFPEFLHNMDYFKFHNMRPPFTYATLIRWAILEAPEKQRTLNEIYHWFTRMFAFFRNHPATWKNAIRHNLSLHKCFVRVESEKGAVWTVDELEFRKKRSQRPSRCSNPTPGP

Variants of: B1
Settings: with caco2_human CALCOCO2, Q13137

effect of a mutation on the interaction	Variant
with no effect	I92V
disrupting interaction strength	A111G
disrupting interaction strength	G112S

Variants of: B2
Settings: with fate1_human FATE1, Q969F0

effect of a mutation on the interaction	Variant
with no effect	P183T
with no effect	P183H

More lines, now with the values behind:

Variant	effect of a mutation on the interaction
D72V	with no effect
S54F	with no effect

Variants of: B3
Settings: with 4et_human EIF4ENIF1, Q9NRA8

effect of a mutation on the interaction	Variant
with no effect	M448T
disrupting interaction strength	A394S
disrupting interaction strength	T508R
disrupting interaction strength	R221H

The next lines start with the variant.

Variant	effect of a mutation on the interaction
P77T	disrupting interaction strength
R159W	with no effect

Variants of: B4
Settings: with CPSF7, Q8N684-3

effect of a mutation on the interaction	Variant
with no effect	I170V
with no effect	N197I

Variants of: B5
Settings: with prdc1_human PRTFDC1, Q9NRG1

effect of a mutation on the interaction	Variant
disrupting interaction strength	D194H

Variants of: B6
Settings: with caco2_human CALCOCO2, Q13137

effect of a mutation on the interaction	Variant
with no effect	L107V

Variants of: B7
Settings: with RBPMS

effect of a mutation on the interaction	Variant
disrupting interaction strength	I363V
disrupting interaction strength	Q70H

Variants of: B7
Settings: with pr20e_human PRR20E

effect of a mutation on the interaction	Variant
disrupting interaction strength	I363V
disrupting interaction strength	Q70H
